Measured values published in patent US20220112288A1 (published 2022).

B1: 75110_04G16A (antibody, V domains shown)
VH: QVQLQESGPGLVKPSQTLSLTCTVSGDSISSGYYYWSWIRQHPGKGLEWIGYISYSGSTYYNPSLKSRLTISVNTSKNQFSLKLSSLTAADTAVYYCARDRPSNFDAFDIWGQGTMVTVSS
VL: EIVLTQSPGTLSLSPGERATLSCRASQSVGSTYLAWYQQKPGQAPRLLIYGAFSRATGIPDRFSGSGSGTDFTLTISRLEPEDFAVYYCQQYGSSPLTFGPGTKVDIK
notes: Tested as non-clonal AlivaMab Mouse hybridoma supernatant (chimeric: human variable regions and human kappa, mouse Fc, captured by anti-mouse IgG Fc sensors); also called ADS75110 non-clonal supernatant 04G16A
B2: 75110_08H11A (antibody, V domains shown)
VH: EVQLVESGGGLVQPGGSLRLSCAASGFTFSSYDMHWVRQATGKGLEWVSTIGTAGDTYYPGSVKGRFTISRENAKNSLYLQMNSLRAGDTAVYYCARGGYSYYGMDVWGQGTTVTVSS
VL: EIVLTQSPGTLSLSPGERATLSCGASQSVSSTYLAWYQQKPGQAPRLLIYGASSRATGIPDRFSGSGSGTDFTLTISRLEPEDFAVYYCQQFGSSPFTFGPGTKVDIK
notes: Tested as non-clonal AlivaMab Mouse hybridoma supernatant (human variable regions and human kappa, mouse Fc); also called ADS75110 non-clonal supernatant 08H11A
B3: 75110_01G11A (antibody, V domains shown)
VH: EVQLVESGGGLVQPGGSLRLSCAASGFTFSSYDMHWVRQATGKGLEWVSTIGTAGDTYYPGSVKGRFTISRENARNSLFLQMNSLRAGDTAVYYCARGGDYYYGMDVWGQGTTVTVSS
VL: EIVLTQSPGTLSLFPGERATLSCRASQNTYSSYLAWYQQKPGQAPRLLIYGASNRATGIPDRFSGSGSGTDFTLTISRLEPEDFAVYYCQQHGTSPFTFGPGTKVDIK
notes: Tested as non-clonal AlivaMab Mouse hybridoma supernatant (human variable regions and human kappa, mouse Fc); also called ADS75110 non-clonal supernatant 01G11A
B4: 75110_01J17A (antibody, V domains shown)
VH: EVQLVESGGGLVQPGGSLRLSCAASGFTFSSYDMHWVRQGTGKGLEWVSTIGTADDTYYPGSVKGRFTISRENAENSLYLQMNSLRAGDTAVYYCARGGDYYYGMDVWGQGTTVTVSS
VL: EIVLAQSPGTLSLSPGERATLSCRASQSVYISYLAWYQQKPGQAPRLLIYGASSRATGIPDRFSGSGSGTDFTLTITRLEPEDFAVYYCQQFGSSPFTFGPGTKVDFK
notes: Tested as non-clonal AlivaMab Mouse hybridoma supernatant (human variable regions and human kappa, mouse Fc); also called ADS75110 non-clonal supernatant 01J17A
B5: 75110_01K10A (antibody, V domains shown)
VH: EVQLVESGGALVQPGGSLRLSCAASGFTFRNYDMHWVRQATGKGLEWVSTIGTAGDTYYPGSVKGRFTISRENAKNSLYLQMNSLRAGDTAVYYCARGGDYYYGMDVWGQGTTVTVSS
VL: EIVLTQSPDTLSLSPGERATLSCRASQSLSSVYLAWYQQKPGQAPRLLIYGASSRATGIPDRFSGTGSGTDFTLTISRLEPEDFAVYYCQQYGSSPFTFGPGTKVDIK
notes: Tested as non-clonal AlivaMab Mouse hybridoma supernatant (human variable regions and human kappa, mouse Fc); also called ADS75110 non-clonal supernatant 01K10A
B6: 75110_01N04A (antibody, V domains shown)
VH: EVQLVESGGGLVQPGGSLRLSCAASGFTFSNYDMHWVRQATGKGLEWVSTIGTAGDTYYPGSVKGRFTISRENAKNSLYLQMNSLRAGDTAVYYCARGGDFYYGLDVWGQGTTVTVSS
VL: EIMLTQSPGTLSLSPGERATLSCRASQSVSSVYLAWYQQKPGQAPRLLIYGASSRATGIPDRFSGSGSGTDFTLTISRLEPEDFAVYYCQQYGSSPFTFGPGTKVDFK
notes: Tested as non-clonal AlivaMab Mouse hybridoma supernatant (human variable regions and human kappa, mouse Fc); also called ADS75110 non-clonal supernatant 01N04A
B7: 75110_02E08A (antibody, V domains shown)
VH: QVQLQESGPGLVKPSETLSLTCTVSGGSISTYYWTWIRQPAGKGLEWIGRVYTSGDTNYNPSLKSRVAMSLDTSKNQFSLKLSSVTAADTAVYYCARDSGALYSWNYGDAFDIWGQGTMVTVSS
VL: DIQMTQSPSAMSASVGDRVTITCRASQDISNYLAWFQQKPGKVPKRLIYAASSLQSGVPSRFSGSGSGTEFTLTISSLQPEDFATYYCLQHNSYPRTFGQGTKVEIK
notes: Tested here as non-clonal hybridoma supernatant from AlivaMab Mouse Kappa mice (detected with anti-mouse Fc and anti-human kappa)
B8: 75110_03C01A (antibody, V domains shown)
VH: QVQLQQWGAGLLKPSETLSLTCAVYGGSFSGYYWSWIRQSPGKGLEWIGEINQSGSTNYNPSLKSRVTISVDTSKDQFSLKLSSVTAADTAVYYCARVINWFDSWGQGSLVTVSS
VL: DIQMTQSPSSVSASVGDRVTITCRASQGISSWLAWYQQKPGNAPKLLIYDASSFQSGVPSRFSGSGSGTDFTLTISSLQTEDFATYYCQQANSFPYTFGQGTKLEIK
notes: as for B7
B9: 75110_04P08A (antibody, V domains shown)
VH: QVQLQQWGAGLLKPSETLSLTCAVYGGSLSGYYWSWIRQSPGKGLEWIGEINQSGSTNYNPSLKSRVTISVDTSKDQFSLRLTSVTAADTAVYYCTRVLNWFDPWGRGTLVTVSS
VL: DIQMTQSPSSVSASVGDRVTLTCRASQDISNWLAWYQQKPGKAPKLLIYAASSLQSGVPSRFSGSGSGTDFTLTISSLQTEDFATYYCQQANSFPYTFGQGTKLEIK
notes: as for B7
B10: 75110_03L12A (antibody, V domains shown)
VH: QVQLQQWGAGLLKPSETLSLTCAVYGGSFSGYYWSWIRQPPGKGLEWIGEINHSGSTNYNPSLKSRVTISVDTSENQFSLTLISVTAADTAVYYCVRLINWFDPWGQGTLVTVSS
VL: DIQMTQSPSSVSASVGDRVTITCRASQDISNWLAWYQQKPGKAPKLLIFAASSLQSGVPSRFSGSGSGTDFTLTISSLQPDDFATYYCQQANSFPYTFGQGTNLGIK
notes: as for B7
B11: 75110_05B13A (antibody, V domains shown)
VH: QVLLEQWGAGLLKPSETLSLTCAVYGGSFSGYYWTWIRQPPGKGLEWIGEINHRGSTNYNPSLKSRVTISIDTSKNQFSLKVKSVTAADTAMYYCTRPDSNWFDPWGQGTLVTVSS
VL: DIQMTQSPSSVSASVGDRVTITCRASQDISNWLAWYQQKPGKAPKLLIFAASSLQSGVPSRFSGSGSGTDFTLTISSLQPEDFATYYCQQANSFPLTFGGGTKVEIK
notes: as for B7

Columns and labels:
[1] = molecular target: T1, Recombinant human CD4 (R&D Systems, Cat. 10327-CD) (human, UniProt P01730 26-390, limits assumed); experiment: BLI (Octet Red 384), non-clonal supernatant captured on AMC sensors, 100 nM human CD4, 1:1 local fit;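 further: hybridoma antibodies from supernatants, one CD4 concentration giving single-point kinetics per supernatant, with curves fitted over both association and dissociation phases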
T1 construct: Bought protein; also called huCD4

[2] = molecular target: T1, Recombinant human CD4 (R&D Systems, …); experiment: BLI (Octet Red 384), non-clonal supernatant captured on AMC sensors, 100 nM human CD4
[3] = molecular target: T2, human CD4 on the surface of SKW3 cells or human PBMCs (human, UniProt P01730 26-458); experiment: FACS confirmation, supernatant on human PBMCs, anti-mouse Fc A647
T2 construct: whole, on cells; SKW3 CD4 knockout cells served as the negative cell line; also called hCD4; SKW3 WT

[4] = molecular target: T2, human CD4 on the surface of SKW3 cells …; experiment: FACS binning on SKW3 cells; competitor OKT4a, anti-human A647 secondary (its signal read); background 5000, max binding 35000
[5] = molecular target: T2, human CD4 on the surface of SKW3 cells …; experiment: FACS primary screen, non-clonal hybridoma supernatant, SKW3 vs SKW3 CD4 KO cells, anti-mouse Fc A647
[6] = molecular target: T2, human CD4 on the surface of SKW3 cells …; experiment: FACS binning on SKW3 cells; competitor OKT4-Alexa Fluor 488 (its signal read); background 2163, max binding 8200
[7] = molecular target: T2, human CD4 on the surface of SKW3 cells …; experiment: FACS confirmation, supernatant on SKW3 WT cells, anti-mouse Fc A647; background gMFI 3300
[8] = molecular target: T3, huCD4-HIS (human, UniProt P01730 26-390, limits assumed); experiment: ELISA binning; competitor ibalizumab; 100 ng/mL huCD4-HIS, anti-HIS HRP detection; background 45, max binding 3000000
T3 construct: not shown: HIS tag

[9] = molecular target: T2, human CD4 on the surface of SKW3 cells …; experiment: FACS confirmation, supernatant on SKW3 WT cells, anti-human kappa FITC; background gMFI 2500
[10] = molecular target: T2, human CD4 on the surface of SKW3 cells …; experiment: FACS confirmation, supernatant on human PBMCs, anti-mouse Fc A647, CD4+ gate
[11] = molecular target: T2, human CD4 on the surface of SKW3 cells …; experiment: FACS primary screen, non-clonal hybridoma supernatant, SKW3 vs SKW3 CD4 KO cells, anti-human kappa FITC
[12] = molecular target: T2, human CD4 on the surface of SKW3 cells …; experiment: FACS binning on SKW3 cells; competitor RPA-T4-PE-Dazzle 594 (its signal read); background 783, max binding 15000

Binder	Kd [1] [nM]	koff [1] [s⁻¹]	kon [1] [M⁻¹ s⁻¹]	Response [2]	PBMCs, anti-mFc 647 CD4+ Percent Bound of Viable [3] [%]	OKT4a anti-hu A647 Secondary signal [4]	SKW3 WT vs KO anti-mFc-647 [5] [ratio]	OKT4 A488 signal [6]	SKW3 WT anti-mFc 647, gMFI [7] [gMFI]	Ibalizumab ELISA binning signal [8]	SKW3 WT anti-hu Kappa FITC, gMFI [9] [gMFI]	PBMCs, anti-mFc 647 CD4+ gate - RL1 Binding [10]	SKW3 WT vs KO anti-hKappa-FITC [11] [ratio]	RPA-T4-PE-Dazzle 594 signal [12]
B1	0.95	7.1e-05	74000	0.15	–	–	–	–	–	–	–	–	–	–
B2	2.9	0.00065	230000	0.08	–	–	–	–	–	–	–	–	–	–
B3	5.3	0.00025	47000	0.04	–	–	–	–	–	–	–	–	–	–
B4	< 0.001	< 1e-07	37000	0.06	–	–	–	–	–	–	–	–	–	–
B5	340	0.00042	1200	0.03	–	–	–	–	–	–	–	–	–	–
B6	2.2	4.8e-05	22000	0.06	–	–	–	–	–	–	–	–	–	–
B7	–	–	–	–	31	41500	8.4	3320	30900	335000	7260	317000	3.1	13500
B8	–	–	–	–	28	6980	8	9510	18700	865000	5920	266000	2.4	19200
B9	–	–	–	–	28	6060	8.4	9760	25300	1.57e+06	7420	260000	3	19900
B10	–	–	–	–	28	5720	4.2	9750	27300	885000	8010	229000	2.5	20700
B11	–	–	–	–	27	5340	3.1	9670	26000	1.03e+06	7310	228000	2.4	20300
